In patent US20260234246A1 (CAEDO ONCOLOGY, published 2026):
One block for each binder: values may come before it.

Assays:
[1] = target: T1, human CD47 on the surface of cells (human cancer cell lines and human red blood cells) (human, UniProt Q08722 19-323); assay: flow cytometry, FITC-mCO-1 on Reh cells
T1 construct: Native CD47 of human cell lines (Jurkat, Reh, CCRF-CEM and others) and of RBCs from healthy donors; also called cell-surface CD47

[2] = target: T1, human CD47 on the surface of cells …; assay: flow cytometry, FITC-mCO-1 on human RBCs (FIG. 1E)
Protocol: (§1) PBS-washed cancer cell lines or RBCs were pelleted and washed with washing buffer (3% (w/v) BSA, 1% (w/v) sodium azide in PBS) and incubated with Human BD Fc Block for 10 minutes before being plated into a round-bottom 96 well plate (2.5×10⁵ cells per well). Antibodies were conjugated with FITC using the FITC conjugation kit from Abcam. […] All samples were prepared in duplicates. Cells were washed three times and resuspended in cold washing buffer. Cells were kept on ice until analyses by flow cytometry. Excitation wavelength FITC: 488 nm, detection: 530/30 nm.

[3] = target: T1, human CD47 on the surface of cells …; assay: flow cytometry, FITC-mCO-1 on MOLT-4 cells
[4] = target: T1, human CD47 on the surface of cells …; assay: flow cytometry, FITC-mCO-1 on H4 cells
Protocol: as §1

[5] = target: T1, human CD47 on the surface of cells …; assay: flow cytometry, FITC-mCO-1 on HL-60 cells
[6] = target: T1, human CD47 on the surface of cells …; assay: flow cytometry, FITC-mCO-1 on HT-1197 cells
Protocol: as §1

[7] = target: T1, human CD47 on the surface of cells …; assay: flow cytometry, FITC-mCO-1 on SW780 cells
[8] = target: T1, human CD47 on the surface of cells …; assay: flow cytometry, FITC-mCO-1 on T24 cells
Protocol: as §1

[9] = target: T1, human CD47 on the surface of cells …; assay: flow cytometry, FITC-mCO-1 on U-118-MG cells
Protocol: as §1

[10] = target: T1, human CD47 on the surface of cells …; assay: flow cytometry, FITC-mCO-1 on UM-UC-3 cells
[11] = target: T1, human CD47 on the surface of cells …; assay: flow cytometry, FITC-mCO-1 on A-172 cells
[12] = target: T1, human CD47 on the surface of cells …; assay: flow cytometry, FITC-mCO-1 on K-562 cells
Protocol: as §1

[13] = target: T1, human CD47 on the surface of cells …; assay: flow cytometry, FITC-mCO-1 on SUP-T1 cells
Protocol: as §1

[14] = target: T1, human CD47 on the surface of cells …; assay: flow cytometry, FITC-mCO-1 on TCCSUP cells
Protocol: as §1

[15] = target: T1, human CD47 on the surface of cells …; assay: flow cytometry, FITC-mCO-1 on SW1088 cells
Protocol: as §1

[16] = target: T1, human CD47 on the surface of cells …; assay: flow cytometry on human RBCs (same experiment as paragraph 345, printed more exactly)
[17] = target: T1, human CD47 on the surface of cells …; assay: flow cytometry, FITC-mCO-1 on HT-1376 cells
[18] = target: T1, human CD47 on the surface of cells …; assay: flow cytometry, FITC-mCO-1 on Raji cells
[19] = target: T1, human CD47 on the surface of cells …; assay: flow cytometry, FITC-mCO-1 on U-87-MG cells
[20] = target: T1, human CD47 on the surface of cells …; assay: flow cytometry, FITC-mCO-1 on CCRF-CEM cells
[21] = target: T2, recombinant CD47 (recCD47), SinoBiological 12283-H27H-B, biotinylated (human, UniProt Q08722 19-139, biotinylated (AVI-tag)); assay: SPR Biacore S200, multi-cycle (top 50 nM), recCD47 on SA chip 1330 RU, 1:1 model; * off-rate difficult to determine
T2 construct: Bought protein, 17 kDa; At 17 kDa it can only be a part of it; also called recombinant biotinylated CD47; not shown: C-terminal His- and AVI-tag
T2 sequence (Q08722 19-139 limits assumed): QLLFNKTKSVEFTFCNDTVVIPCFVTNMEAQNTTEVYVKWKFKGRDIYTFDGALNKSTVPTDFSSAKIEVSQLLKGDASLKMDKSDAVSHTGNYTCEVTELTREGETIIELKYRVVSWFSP

[22] = target: T2, recombinant CD47 (recCD47), …; assay: SPR Biacore S200, multi-cycle (top 50 nM), recCD47 on SA chip 1330 RU, antibody as analyte, 1:1 model
[23] = target: T2, recombinant CD47 (recCD47), …; assay: SPR Biacore S200, single-cycle (top 80 nM), recCD47 on SA chip 1330 RU, 1:1 model; * off-rate difficult to determine
[24] = target: T2, recombinant CD47 (recCD47), …; assay: SPR Biacore S200, single-cycle, recCD47 on SA chip 700 RU, antibody as analyte, 25 C, 1:1 model
[25] = target: T1, human CD47 on the surface of cells …; assay: flow cytometry, FITC-conjugated antibody on CCRF-CEM cells
Protocol: as §1
4-parameter curve fitting was performed using GraphPad Prism

[26] = target: T2, recombinant CD47 (recCD47), …; assay: SPR Biacore S200, multi-cycle (top 50 nM), recCD47 on SA chip 1330 RU, 1:1 model
[27] = target: T2, recombinant CD47 (recCD47), …; assay: SPR Biacore S200, single-cycle (top 80 nM), recCD47 on SA chip 1330 RU, 1:1 model
[28] = target: T2, recombinant CD47 (recCD47), …; assay: SPR Biacore S200, single-cycle (top 80 nM), recCD47 on SA chip 1330 RU, antibody as analyte, 1:1 model

T1 sequence (Q08722 19-323 limits assumed): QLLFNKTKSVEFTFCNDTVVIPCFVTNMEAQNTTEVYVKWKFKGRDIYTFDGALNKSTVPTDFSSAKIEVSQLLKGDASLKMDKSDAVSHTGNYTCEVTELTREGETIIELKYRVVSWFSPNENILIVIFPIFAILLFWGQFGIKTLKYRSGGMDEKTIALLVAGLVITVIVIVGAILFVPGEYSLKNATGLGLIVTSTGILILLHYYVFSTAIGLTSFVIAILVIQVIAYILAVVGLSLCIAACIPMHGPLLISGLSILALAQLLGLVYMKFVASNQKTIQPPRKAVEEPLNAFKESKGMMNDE

EC50 [1]: 2800 ng/mL
EC50 [2]: 40 ng/mL
EC50 [3]: 10.6 ng/mL
EC50 [4]: 2460 ng/mL
EC50 [5]: 592 ng/mL
EC50 [6]: 786 ng/mL
EC50 [7]: 334 ng/mL
EC50 [8]: 900 ng/mL
EC50 [9]: 404 ng/mL
EC50 [10]: 55.3 ng/mL
EC50 [11]: 3500 ng/mL
EC50 [12]: 354 ng/mL
EC50 [13]: 4.25 ng/mL
EC50 [14]: 2400 ng/mL
EC50 [15]: 1170 ng/mL
EC50 [16]: 44 ng/mL
EC50 [17]: 286 ng/mL
EC50 [18]: 26.7 ng/mL
EC50 [19]: 2990 ng/mL
EC50 [20]: 1.08 ng/mL
B1: murine CO-1 (mCO-1) antibody (antibody, V domains shown)
VH: QIQLVQSGPELKKPGETVKISCKASGYTFTNFGMHWVKQAPGKGLKWMGWINTYTGEPTYTDDFKGRFAFSLETSASTAYLQINSLKNEDTATFFCTRGDYRYGDSWGQGTTLTVSS
VL: DVVMTQTPLSLPVSLGDQASISCRSSQSLVHSNGKTYLHWYLQKPGQSPKLLIYRVSNRFSGVPDRFSGSGSGTDFTLKISRIEAEDLGVYFCSQSTHVPFTFGSGTKLEIK
notes: Full length mouse IgG1 kappa antibody from a hybridoma

Kd [21]: 0.04 pM
kon [22]: 900000 M⁻¹ s⁻¹
Kd [23]: < 1 pM
koff [24]: 4.7e-06 s⁻¹
kon [24]: 1.4e+06 M⁻¹ s⁻¹
EC50 [25]: 0.0283 ng/mL
Kd [26]: < 1 pM
Kd [27]: < 1 pM
kon [28]: 500000 M⁻¹ s⁻¹
B2: CO-1.1 antibody (chimeric CO-1 IgG1) (antibody)
heavy: not shown
light: DVVMTQTPLSLPVSLGDQASISCRSSQSLVHSNGKTYLHWYLQKPGQSPKLLIYRVSNRFSGVPDRFSGSGSGTDFTLKISRIEAEDLGVYFCSQSTHVPFTFGSGTKLEIKRTVAAPSVFIFPPSDEQLKSGTASVVCLLNNFYPREAKVQWKVDNALQSGNSQESVTEQDSKDSTYSLSSTLTLSKADYEKHKVYACEVTHQGLSSPVTKSFNRGEC
notes: Chimeric: mouse variable domains of mCO-1 with human IgG1 constant regions; also called SC-CO-1; MC-CO-1
